Laboratory results reported in paper PMC11125477 (PLOS ONE, 2024).

Target: T1, MAMDC4 (UniProt Q63191 22-1216)
T1 construct: HEK293 cells also hold endogenous (human) MAMDC4, which the anti-MAMDC4 antibody may precipitate as well; also called Endotubin; AEGP; source: HEK293, transfected (overexpressed), in lysate
Experiment: co-IP; HEK293 cells overexpressing MAMDC4, control or 50% Wnt3a conditioned media for 6hrs; NP-40 lysis buffer; lysates precipitated with anti-MAMDC4 (hybridoma supernatant) or control IgG on Protein G Dynabeads overnight at 4°C; immunoblot; input 1/50th of lysate
Conditions: partners not purified

T1 sequence (Q63191 22-1216): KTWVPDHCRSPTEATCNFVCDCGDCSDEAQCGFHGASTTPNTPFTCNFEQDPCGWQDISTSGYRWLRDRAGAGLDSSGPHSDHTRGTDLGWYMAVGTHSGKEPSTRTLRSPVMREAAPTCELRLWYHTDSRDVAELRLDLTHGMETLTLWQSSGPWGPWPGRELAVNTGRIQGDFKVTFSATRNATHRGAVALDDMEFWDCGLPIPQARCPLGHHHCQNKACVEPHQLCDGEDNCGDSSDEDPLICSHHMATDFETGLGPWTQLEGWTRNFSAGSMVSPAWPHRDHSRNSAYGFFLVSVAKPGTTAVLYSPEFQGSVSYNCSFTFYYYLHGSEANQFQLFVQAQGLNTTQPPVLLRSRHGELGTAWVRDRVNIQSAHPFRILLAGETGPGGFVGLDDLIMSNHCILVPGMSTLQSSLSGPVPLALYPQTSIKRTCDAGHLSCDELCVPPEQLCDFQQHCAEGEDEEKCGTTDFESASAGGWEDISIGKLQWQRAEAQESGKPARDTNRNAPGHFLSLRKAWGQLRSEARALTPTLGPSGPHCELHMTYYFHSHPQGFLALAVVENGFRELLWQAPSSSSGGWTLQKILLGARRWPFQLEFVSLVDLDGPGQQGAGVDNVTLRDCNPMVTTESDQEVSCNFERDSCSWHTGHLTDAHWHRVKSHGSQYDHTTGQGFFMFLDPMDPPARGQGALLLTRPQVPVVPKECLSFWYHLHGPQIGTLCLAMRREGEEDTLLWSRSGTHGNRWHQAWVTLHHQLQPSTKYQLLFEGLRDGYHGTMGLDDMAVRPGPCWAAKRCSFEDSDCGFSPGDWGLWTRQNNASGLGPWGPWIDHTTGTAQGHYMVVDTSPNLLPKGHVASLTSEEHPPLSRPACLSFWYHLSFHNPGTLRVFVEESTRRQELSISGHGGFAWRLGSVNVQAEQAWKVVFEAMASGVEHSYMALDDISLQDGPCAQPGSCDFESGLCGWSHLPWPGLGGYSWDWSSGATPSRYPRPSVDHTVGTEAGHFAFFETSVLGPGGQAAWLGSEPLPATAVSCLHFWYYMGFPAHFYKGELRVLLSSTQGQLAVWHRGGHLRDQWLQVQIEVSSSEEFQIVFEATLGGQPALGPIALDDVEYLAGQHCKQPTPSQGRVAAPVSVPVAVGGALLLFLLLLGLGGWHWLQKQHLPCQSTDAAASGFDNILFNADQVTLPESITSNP

B1: LRP6 (receptor, human (endogenous in HEK293), UniProt O75581 20-1613, looked up)
chain: APLLLYANRRDLRLVDATNGKENATIVVGGLEDAAAVDFVFSHGLIYWSDVSEEAIKRTEFNKTESVQNVVVSGLLSPDGLACDWLGEKLYWTDSETNRIEVSNLDGSLRKVLFWQELDQPRAIALDPSSGFMYWTDWGEVPKIERAGMDGSSRFIIINSEIYWPNGLTLDYEEQKLYWADAKLNFIHKSNLDGTNRQAVVKGSLPHPFALTLFEDILYWTDWSTHSILACNKYTGEGLREIHSDIFSPMDIHAFSQQRQPNATNPCGIDNGGCSHLCLMSPVKPFYQCACPTGVKLLENGKTCKDGATELLLLARRTDLRRISLDTPDFTDIVLQLEDIRHAIAIDYDPVEGYIYWTDDEVRAIRRSFIDGSGSQFVVTAQIAHPDGIAVDWVARNLYWTDTGTDRIEVTRLNGTMRKILISEDLEEPRAIVLDPMVGYMYWTDWGEIPKIERAALDGSDRVVLVNTSLGWPNGLALDYDEGKIYWGDAKTDKIEVMNTDGTGRRVLVEDKIPHIFGFTLLGDYVYWTDWQRRSIERVHKRSAEREVIIDQLPDLMGLKATNVHRVIGSNPCAEENGGCSHLCLYRPQGLRCACPIGFELISDMKTCIVPEAFLLFSRRADIRRISLETNNNNVAIPLTGVKEASALDFDVTDNRIYWTDISLKTISRAFMNGSALEHVVEFGLDYPEGMAVDWLGKNLYWADTGTNRIEVSKLDGQHRQVLVWKDLDSPRALALDPAEGFMYWTEWGGKPKIDRAAMDGSERTTLVPNVGRANGLTIDYAKRRLYWTDLDTNLIESSNMLGLNREVIADDLPHPFGLTQYQDYIYWTDWSRRSIERANKTSGQNRTIIQGHLDYVMDILVFHSSRQSGWNECASSNGHCSHLCLAVPVGGFVCGCPAHYSLNADNRTCSAPTTFLLFSQKSAINRMVIDEQQSPDIILPIHSLRNVRAIDYDPLDKQLYWIDSRQNMIRKAQEDGSQGFTVVVSSVPSQNLEIQPYDLSIDIYSRYIYWTCEATNVINVTRLDGRSVGVVLKGEQDRPRAVVVNPEKGYMYFTNLQERSPKIERAALDGTEREVLFFSGLSKPIALALDSRLGKLFWADSDLRRIESSDLSGANRIVLEDSNILQPVGLTVFENWLYWIDKQQQMIEKIDMTGREGRTKVQARIAQLSDIHAVKELNLQEYRQHPCAQDNGGCSHICLVKGDGTTRCSCPMHLVLLQDELSCGEPPTCSPQQFTCFTGEIDCIPVAWRCDGFTECEDHSDELNCPVCSESQFQCASGQCIDGALRCNGDANCQDKSDEKNCEVLCLIDQFRCANGQCIGKHKKCDHNVDCSDKSDELDCYPTEEPAPQATNTVGSVIGVIVTIFVSGTVYFICQRMLCPRMKGDGETMTNDYVVHGPASVPLGYVPHPSSLSGSLPGMSRGKSMISSLSIMGGSSGPPYDRAHVTGASSSSSSSTKGTYFPAILNPPPSPATERSHYTMEFGYSSNSPSTHRSYSYRPYSYRHFAPPTTPCSTDVCDSDYAPSRRMTSVATAKGYTSDLNYDSEPVPPPPTPRSQYLSAEENYESCPPSPYTERSYSHHLYPPPPSPCTDSS
notes: LRP6, endogenous in HEK293 cells, detected with rabbit anti-LRP6 (CST 2560); also called total LRP6; source: endogenous, HEK293 lysate
  ratio of signal from immunoprecipitation relative to input: ~1 ratio IP to input

B2: phospho-LRP6 (Ser 1490) (receptor, human (endogenous in HEK293), UniProt O75581 20-1613, looked up)
chain: APLLLYANRRDLRLVDATNGKENATIVVGGLEDAAAVDFVFSHGLIYWSDVSEEAIKRTEFNKTESVQNVVVSGLLSPDGLACDWLGEKLYWTDSETNRIEVSNLDGSLRKVLFWQELDQPRAIALDPSSGFMYWTDWGEVPKIERAGMDGSSRFIIINSEIYWPNGLTLDYEEQKLYWADAKLNFIHKSNLDGTNRQAVVKGSLPHPFALTLFEDILYWTDWSTHSILACNKYTGEGLREIHSDIFSPMDIHAFSQQRQPNATNPCGIDNGGCSHLCLMSPVKPFYQCACPTGVKLLENGKTCKDGATELLLLARRTDLRRISLDTPDFTDIVLQLEDIRHAIAIDYDPVEGYIYWTDDEVRAIRRSFIDGSGSQFVVTAQIAHPDGIAVDWVARNLYWTDTGTDRIEVTRLNGTMRKILISEDLEEPRAIVLDPMVGYMYWTDWGEIPKIERAALDGSDRVVLVNTSLGWPNGLALDYDEGKIYWGDAKTDKIEVMNTDGTGRRVLVEDKIPHIFGFTLLGDYVYWTDWQRRSIERVHKRSAEREVIIDQLPDLMGLKATNVHRVIGSNPCAEENGGCSHLCLYRPQGLRCACPIGFELISDMKTCIVPEAFLLFSRRADIRRISLETNNNNVAIPLTGVKEASALDFDVTDNRIYWTDISLKTISRAFMNGSALEHVVEFGLDYPEGMAVDWLGKNLYWADTGTNRIEVSKLDGQHRQVLVWKDLDSPRALALDPAEGFMYWTEWGGKPKIDRAAMDGSERTTLVPNVGRANGLTIDYAKRRLYWTDLDTNLIESSNMLGLNREVIADDLPHPFGLTQYQDYIYWTDWSRRSIERANKTSGQNRTIIQGHLDYVMDILVFHSSRQSGWNECASSNGHCSHLCLAVPVGGFVCGCPAHYSLNADNRTCSAPTTFLLFSQKSAINRMVIDEQQSPDIILPIHSLRNVRAIDYDPLDKQLYWIDSRQNMIRKAQEDGSQGFTVVVSSVPSQNLEIQPYDLSIDIYSRYIYWTCEATNVINVTRLDGRSVGVVLKGEQDRPRAVVVNPEKGYMYFTNLQERSPKIERAALDGTEREVLFFSGLSKPIALALDSRLGKLFWADSDLRRIESSDLSGANRIVLEDSNILQPVGLTVFENWLYWIDKQQQMIEKIDMTGREGRTKVQARIAQLSDIHAVKELNLQEYRQHPCAQDNGGCSHICLVKGDGTTRCSCPMHLVLLQDELSCGEPPTCSPQQFTCFTGEIDCIPVAWRCDGFTECEDHSDELNCPVCSESQFQCASGQCIDGALRCNGDANCQDKSDEKNCEVLCLIDQFRCANGQCIGKHKKCDHNVDCSDKSDELDCYPTEEPAPQATNTVGSVIGVIVTIFVSGTVYFICQRMLCPRMKGDGETMTNDYVVHGPASVPLGYVPHPSSLSGSLPGMSRGKSMISSLSIMGGSSGPPYDRAHVTGASSSSSSSTKGTYFPAILNPPPSPATERSHYTMEFGYSSNSPSTHRSYSYRPYSYRHFAPPTTPCSTDVCDSDYAPSRRMTSVATAKGYTSDLNYDSEPVPPPPTPRSQYLSAEENYESCPPSPYTERSYSHHLYPPPPSPCTDSS
modifications: phosphoserine at 1490
notes: LRP6 phosphorylated at Ser 1490, endogenous in HEK293 cells, detected with rabbit anti-phospho-LRP6 (Ser 1490) (CST 2568); also called p-LRP6; source: endogenous, HEK293 lysate
  ratio of signal from immunoprecipitation relative to input: ~1 ratio IP to input
